Usually Km stands for the substrate concentration at which the rate is half of its maximum. One may read the kcat as the maximal rate divided by the concentration of active sites. The kcat/Km is the turnover number divided by the Michaelis constant.

Holding throughout (experiment): Kinetic constants of AMC substrate hydrolysis by hK2
Type in all cases: biochemical, human
What all share (settings): other: 50 mM Tris pH 7.5, 0.1 M NaCl, 0.2% BSA, 37° C., Lineweaver-Burk

Data set [1] concerns T1, Cc1cc(=O)oc2cc(NC(=O)[C@H](CCCNC(=N)N)NC(=O)[C@H](CCCNC(=N)N)NC(=O)[C@H](C)NC(=O)OCc3ccccc3)ccc12.
T1 construct: made in house
Here is the method: (§1) The measurements were done with Fluoroscan II (Labsystems, Helsinki, Finland) using a 355 nm excitation filter and a 460 nm emission filter. The fluorescence of 7-amino-4-methylcoumarin (AMC) (Sigma, St. Louis, Mo., USA) was determined to be 700 FIU/nmol and this value was used in the calculations of the rate of product formation. Unless otherwise indicated all final analyses were performed in 200 μl of the buffer 50 mM Tris pH 7.5, 0.1 M NaCl, and 0.2% BSA at 37° C. using 1.6 pmol hK2. BSA was added to the reaction mixture in order to minimize adsorption of the enzyme to the walls of the microtiter wells. The amount of hK2 was quantified by a commercial PSA immunoassay (Prostatus, Wallac, Turku, Finland) with the Mabs H1 17 and H50 which recognize PSA and hK2 equally well (Lovgren et al., Biochem. Biophys. Res. Co., 213, 888-895 (1995)). Under the conditions described, 1.6 pmol of the hK2 preparation cleaved 50 pmol/min of the 100 μM substrate Pro-Phe-Arg-AMC (SEQ ID NO: 55). During the 20 minute measurement time the consumption of the substrates is <7% of their total amount and was not considered to affect the reaction rate. Initial analysis of the substrates were performed with 3.2 pmol hK2 at a substrate concentration of 250 μM. Km value for the substrates cleaved by hK2 at these conditions were determined using at least four substrate concentrations ranging from 0.2×Km to 5×Km. The Km and kcat values were calculated from Lineweaver-Burk plots.
(§2) Substrates ending in either arginine or lysine were tested. […] However, no hydrolysis of Arg-Gln-Arg-Arg-AMC (SEQ ID NO: 63) was detected. […] As with the semenogelins, hK2 also here cleaves substrates with Arg at position P1 and preferentially a large residue or another Arg at position P2. None of the substrates with lysine in the C-terminal position were cleaved.
(§3) The activity listed in Table 1 is hydrolytic activity of hK2 with 100 μM substrate in relation to the hydrolytic activity of hK2 with 100 μM of the tissue kallikrein substrate H-Pro-Phe-Arg-AMC (SEQ ID NO: 55). The entry “NR” means that no reaction was detected.

Data set [2] relates to T2, Cc1cc(=O)oc2cc(NC(=O)[C@H](CCCNC(=N)N)NC(=O)[C@@H]3CCCN3C(=O)[C@@H](NC(=O)OC(C)(C)C)C(C)C)ccc12.
T2 construct: made in house
The procedure:
as §1, §2, §3

For data set [3], the system named is T3, Cc1cc(=O)oc2cc(NC(=O)[C@H](CCCNC(=N)N)NC(=O)[C@H](Cc3ccccc3)NC(=O)[C@@H]3CCCN3)ccc12.
T3 construct: made in house
The procedure: as §1, §2, §3

In data set [4] the test system is T4, Cc1cc(=O)oc2cc(NC(=O)[C@H](CCCNC(=N)N)NC(=O)[C@H](CC(C)C)NC(=O)[C@H](CC(C)C)NC(=O)OCc3ccccc3)ccc12.
T4 construct: made in house
Here is the method:
as §1, §2, §3

With recombinant hK2 (Homo sapiens), the Km in data set [1] amounted to 20 µM; in data set [2], 48 µM; in data set [3], 40 µM; in data set [4], 71 µM. Besides, the kcat in data set [1] amounted to 0.12 s⁻¹; in data set [2], 0.0267 s⁻¹; in data set [3], 0.917 s⁻¹; in data set [4] it was 0.04 s⁻¹. The catalytic efficiency (kcat/Km) in data set [1] amounted to 6000 M⁻¹ s⁻¹; in data set [2] it was 567 M⁻¹ s⁻¹; in data set [3], 22900 M⁻¹ s⁻¹; in data set [4] it was 567 M⁻¹ s⁻¹.

The values above are taken from patent publication US8450280B2, “Activation of peptide prodrugs by hK2” (GenbSpera, Inc., priority 1999, dated 2013).
